From publication PMC3115060, “Structural Analysis of a Novel Class of R–M Controller Proteins: C.Csp231I from Citrobacter sp. RFL231” (Journal of Molecular Biology, 2011)

Target: the molecule itself
Assay: AUC; sedimentation velocity, 10-80 uM protein, 50 mM Tris-HCl pH 8.0, 100 mM NaCl, 1 mM Na2-EDTA, 20 C, 40,000 rpm, 280 nm; self-association (dimer)

B1: C.Csp231I controller protein (natural protein, Citrobacter sp. RFL231, UniProt Q32WH4 1-98, looked up)
chain: MLIRRLKDARLRAGISQEKLGVLAGIDEASASARMNQYEKGKHAPDFEMANRLAKVLKIPVSYLYTPEDDLAQIILTWNELNEQERKRINFYIRKKAK
notes: C.Csp231I controller protein of the Csp231I restriction-modification system, Citrobacter sp; RFL231; native untagged protein, 98 amino acids (Mr 11,360), expressed from the csp231IC gene; Homodimer in solution and in both crystal forms; also called C-protein; source: E. coli BL21(DE3) Gold, pET-11a, purified (HiTrap heparin, HiTrap SP, Sephacryl S-100 HR)
stoichiometry N: 2
